Assay results reported in patent US20160333101A1 (GENOR BIOPHARMA, published 2016).
Positions count from the first letter of the chain named.

T1: recombinant human RANKL (human, UniProt O14788 136-317)
T1 construct: Expressed in CHO cells, purified on a nickel column; the secretion signal is not described; also called hRANKL; soluble RANKL protein
T1 sequence: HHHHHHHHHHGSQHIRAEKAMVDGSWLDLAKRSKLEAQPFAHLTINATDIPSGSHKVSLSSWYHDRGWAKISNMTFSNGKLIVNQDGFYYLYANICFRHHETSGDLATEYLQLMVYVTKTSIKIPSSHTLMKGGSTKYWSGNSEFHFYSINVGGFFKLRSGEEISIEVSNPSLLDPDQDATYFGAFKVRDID

B1: pFL249-L10u (scFv)
scFv: QVQLQQSGAELASPGASVKLSCKASGYTFTTYWLQWVKQRPGQGLEWIGAIYPGPGNTKYTQKFKDKATLTADKSASTAYMQLNSLTSEDSAVYYCARRGSRRGIAYWGQGTLVTVSAASSGGGGSGGGGSGGGGSSNIVLTQSPASLSVSLGQRATISCRASESVDSYGRSFMHWYQQRPGQAPKLLIYLASNLESGVPARFSGSGSRTDFTLTISSVEAEDEATYYCQQDNEDPYTFGGGTKLEIK
notes: scFv in IPTG-induced E. coli supernatant, screened by ELISA; also called L10u scFv clone of the VL library; not shown: c-myc tag and his tag of vector pFL249
B2: pFL249-L10 (scFv)
scFv: B1 scFv with K186R
notes: scFv in IPTG-induced E. coli supernatant, screened by ELISA; also called L10 scFv clone of the VL library; not shown: c-myc tag and his tag of vector pFL249
B3: pFL249-L37u (scFv)
scFv: B1 scFv with R180K, A201S, S218R, E224A
notes: scFv in IPTG-induced E. coli supernatant, screened by ELISA; also called L37u scFv clone of the VL library; not shown: c-myc tag and his tag of vector pFL249
B4: pFL249-L37 (scFv)
scFv: B1 scFv with R180K, A201S, S218A, E224A
notes: scFv in IPTG-induced E. coli supernatant, screened by ELISA; also called L37 scFv clone of the VL library; not shown: c-myc tag and his tag of vector pFL249
B5: pFL249-H16u (scFv)
scFv: QVQLVQSGAELKKPGASVKLSCKASGYTFTTYWLQWVRQAPGQGLEWMGAIYPGPGNTKYTQKFKDRFTITADTSKSTAYMQLNSLKSEDSAVYYCARRGSRRGIAYWGQGTLVTVSAASSGGGGSGGGGSGGGGSSNIVLTQSPASLAVSLGQRATISCRASESVDSYGRSFMHWYQQRPGQPPTLLIYLASNLESGVPVRFSGSGSRTDFTLTIDPVEADDAATYYCQQDNEDPYTFGGGTKLEIK
notes: scFv in IPTG-induced E. coli supernatant, screened by ELISA; also called H16u scFv clone of the VH library; not shown: c-myc tag and his tag of vector pFL249
B6: pFL249-H114 (scFv)
scFv: B5 scFv with K12V, K13Q, A40T, F68V, K76T, K87R
notes: scFv in IPTG-induced E. coli supernatant, screened by ELISA; also called H114 scFv clone of the VH library; not shown: c-myc tag and his tag of vector pFL249
B7: pFL249-H16 (scFv)
scFv: B5 scFv with T74K
notes: scFv in IPTG-induced E. coli supernatant, screened by ELISA; also called H16 scFv clone of the VH library; not shown: c-myc tag and his tag of vector pFL249
B8: 114-5.7.14 (antibody, V domains shown)
VH: EVQLQQSGAELVKPGASVKLSCTASGFKIKDTYMHWVRQRPEQGLEWIGRIDSANGNIKYDPKFQGKATITADTSSKTAYLHLSSLTFEDTAVYYCSRPKSNYDFWLPYWGQGTLVTVSA
VL: DIQMTQTTSSLSASLGDRVTISCSASQGISNYLNWYQQKPDGTVKLLIYYTSSLHSGVPSRFSGSGSGTDYSLTISNLEPEDIATYYCQQYSKLPLTFGAGTKLELK
B9: 114-2.222 (antibody, V domains shown)
VH: EVQLQQSGAELVKPGASVKLSCTTSGFNIKATYIHWVQQRPEQGLEWIGRIDPANGNTKYDSKFQGKATITADTSSNTAYLQLSSLTSEDTAVYFCARSLHYYVFFDYWGQGTTLTVSS
VL: DIQMTQTTSSLSASLGDRVTISCSASQGISNYLNWYQQKPDGTVKLLIYSTSSLHSGVPSRFSGSGSGTDYSLTISSLEPEDIATYYCQQYSKLPLTFGAGTKLELKR
B10: 114-5.9.4 (antibody, V domains shown)
VH: EVQLQQSGAELVKPGASVKLSCTASGFNLKGTYIHWVKQRPGQGLEWIGRIDPANANTKYDPKFQGKATIRTDTSSNTAYLQLSSLTSEDTAVYFCSSPSGHYDVWFAYWGQGTLVTVSP
VL: B9 VL with T7P, R18T, G28D, V44L, S50Y, S77N, Y91F
B11: 114-2.402 (antibody, V domains shown)
VH: EVQLQQSGTELVKPGASVKLSCTLFGFNIKATYMHWVRQRPEQGLEWIGRIDPPNGNTKYDPKFQDKATIKVDTSSNTAYLQLSSLTSEDTAVYYCAREFNRYDVWLAYWGQGTLVTVSA
VL: B9 VL with I29V, S77N, I83V, L96F, A100S, L106I
B12: 114-7.38.48 (antibody, V domains shown)
VH: DVQLQESGPDLVKPSQSLSLTCTVTGYSITSAYSWHWIRQFPGNKLEWMGYIHFSGVTNYNPSLKSRISITRDASKNQFFLQLSSVTTEDTATYYCATRRETGFTYWGQGTLVTVSA
VL: DIVLTQSPATLSVTPGDSVSLSCRASQSISKNLHWYQQKSHESPRLLIKYASQSISGIPSRFSGSGSGTDFTLSINSVETEDFGIYFCQQINSWPLTFGAGTKLELK
B13: 114-6.6.29 (antibody, V domains shown)
VH: DVKLVESGGGLVKPGGSLKLSCAASGFTFSSYTMSWVRQTPEKRLEWVATISSGGSYTYYPDSVKGRFTISRDNAKNTLYLQMSSLKSEDTAMYYCTRDWDYYGTTYVGGYAMDYWGQGTSVTVSS
VL: DVLMTQTPLSLPVSLGDQASISCRSSQSIVHSNGNTYLEWYLQKPGQSPKLLIYKVSNRFSGVPDRFSGSGSGTDFTLKISRVEAEDLGVYYCFQGSHVPWTFGGGTKLEIK
B14: 114-7.19.12 (antibody, V domains shown)
VH: QVQLQQSGAELASPGASVKLSCKASGYTFTTYWLQWVKQRPGQGLEWIGAIYPGPGNTKYTQKFKDKATLTADKSASTAYMQLNSLTSEDSAVYYCARRGSRRGIAYWGQGTLVTVSA
VL: NIVLTQSPASLAVSLGQRATISCRASESVDSYGRSFMHWYQQRPGQPPTLLIYLASNLESGVPVRFSGSGSRTDFTLTIDPVEADDAATYYCQQDNEDPYTFGGGTKLEIK
B15: 114-7.37.26 (antibody, V domains shown)
VH: B14 VH with A24T, N84S
VL: B14 VL with V64A
B16: G12 (antibody, human IgG2, kappa, V domains shown)
VH: QVQLVQSGAELKKPGASVKLSCKASGYTFTTYWLQWVRQAPGQGLEWMGAIYPGPGNTKYTQKFKDRFTITADTSKSTAYMQLNSLKSEDSAVYYCARRGSRRGIAYWGQGTLVTVSA
VL: NIVLTQSPASLSVSLGQRATISCRASESVDSYGRSFMHWYQQRPGQAPKLLIYLASNLESGVPARFSGSGSRTDFTLTISSVEAEDEATYYCQQDNEDPYTFGGGTKLEIKG
B17: G14 (antibody, human IgG2, kappa, V domains shown)
VH: B16 VH with L11V, L20V, F68V, T74E, K76T, Q82E, N84S, K87R, S91T
VL: DIVMTQSPDSLAVSLGERATINCRASESVDSYGRSFMHWYQQKPGQAPRLLIYLASNLESGVPSRFSGSGSGTDFTLTINSLEAEDAATYYCQQDNEDPYTFGGGTKLEIKG
B18: G4 (antibody, human IgG2, kappa, V domains shown)
VH: B16 VH with T74K
VL: B16 VL
B19: G10 (antibody, human IgG2, kappa, V domains shown)
VH: B16 VH
VL: B16 VL with K49R
B20: G8 (antibody, human IgG2, kappa, V domains shown)
VH: B16 VH with K12V, K13Q, A40T, F68V, K76T, K87R
VL: B16 VL
B21: G15 (antibody, human IgG2, kappa, V domains shown)
VH: B16 VH with L11V, L20V, F68V, T74E, K76T, Q82E, N84S, K87R, S91T
VL: B16 VL with K49R

Molecular target: T1, recombinant human RANKL
Assay: ELISA, scFv supernatant on coated hRANKL, anti-c-myc-HRP
Method: For VH, VL libraries, 5×96 clones selected randomly from SOBAG cloning plates obtained in the third round and the fourth round are vaccinated on 96-deep-well plates respectively, 400 μl 2×YT-AG medium is contained in each well, the bacterial liquid is cultivated with shaking, at 30° C., 200 rpm overnight. The next day, the bacterial liquid on the deep-well plate is transferred by 1:50 to a new 96-deep-well plate containing 400 μl 2×YT-AG fresh medium. The bacterial liquid is cultivated with shaking at 37° C., 200 rpm until OD600 is about 0.8 (for about 3 hours). The bacterial is collected through 1500 g centrifugation for 10 minutes, the supernatant is removed, and the bacterial is resuspended with 400 μl of sterile fresh 2×YT-AI (I refers to IPTG, with a final concentration of […]) culture medium, the suspension is cultivated with shaking at 30° C., 200 rpm overnight (that is, the expression of scFv is induced overnight). The expressed inductively scFv supernatant on the deep-well plate is centrifuged at 3000 g for 20 min, 300 μl supernatant is transferred to a clean 96-well cell plate for backup.
The plates are washed three times with PBST (containing 0.05% Tween 20). The plates are closed with blocking solution (PBS solution containing 2% (WN) of BSA) for 1˜1.5 hours at room temperature. […] The closed microtiter plate is incubated for 2 hours at room temperature, washed three times with PBST.

binding result	Binder
binds	B1
binds	B2
binds	B3
binds	B4

Molecular target: T1, recombinant human RANKL
Assay: ELISA, scFv supernatant on coated hRANKL, anti-c-myc-HRP; threshold of the clones sent for sequencing
Method: The plates are washed three times with PBST (containing 0.05% Tween 20). The plates are closed with blocking solution (PBS solution containing 2% (WN) of BSA) for 1˜1.5 hours at room temperature. […] The closed microtiter plate is incubated for 2 hours at room temperature, washed three times with PBST. […] After the microtiter plate is washed six times with PBST, TMB substrate (purchased from Cell Signaling Technology, Cat. NO.7004) is added, and the samples are colored at room temperature for 10 minutes, 50 μl 2 M HCl is added in each well to terminate the color, and OD450 nm reading is detected using the M5 equipment.
If OD450>0.4, it is considered as a positive coloration.

OD450	Binder
1.2	B5
1.2	B6
1.2	B7

Molecular target: T1, recombinant human RANKL
Assay: cell-based or functional assay

EC50 value (ng/ml), inhibiting the cellular differentiation of RAW264.7 induced by human RANKL [ng/mL]	Binder
315	B8
311	B9
340	B10
396	B11
585	B12
799	B13
267	B14
470	B15

Molecular target: T1, recombinant human RANKL
Assay: cell-based or functional assay
Remark: another data set of the same source

IC50 (ng/ml) in RAW264.7 cells, osteoclast differentiation induced by RANKL [ng/mL]	Binder
~1060	B16
~517	B17
~1080	B18
695	B19
~573	B20

Molecular target: T1, recombinant human RANKL
Assay: cell-based or functional assay
Remark: another data set of the same source

IC50 for inhibiting hRANKL induced RAW264.7 cell differentiation [µg/mL]	Binder
0.247	B17
0.329	B20
0.257	B21
